Measurements: the supplement of paper PMC7877785
± gives the uncertainty stated by the source.

Assay: self-splicing fitness, log relative to wild type (ln ratio); higher = more splicing; Tetrahymena group I intron in knt gene, E. coli kanamycin selection, DiMSum; sequences stand for … in CUCUCU…GGAGGGAAAAGUUAUCAGGCAUGCACCUGGUAGCUAGUCUUUAAACCAAUAGAUUGCAUCGGUUUAAAAGGCAAGACCGUCAAAUUGCGGGAAAGGGGUCAACAGCCGUUCAGUACCAAGUCUCAGGGGAAACUUUGAGAUGGCCUUGCAAAGGGUAUGGUAAUAAGCUGACGGACAUGGUCCUAACCACGCAGCCAAGUCCUAAGUCAACAGAUCUUCUGUUGAUAUGGAUGCAGUUCACAGACUAAAUGUCGGUCGGGGAAGAUGUAUUCUUCUCAUAAGAUAUAGUCGGACCUCUCCUUAAUGGGAGCUAGCGGAUGAAGUGAUGCAACACUGGAGCCGCUGGGAACUAAUUUGUAUGCGAAAGUAUAUUGAUUAGUUUUGGAGUACUCGUGGUCG
Outline: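 Pooled colonies went to amplicon sequencing on an Illumina HiSeq 2500 after six replicate transformations. The plates were LB agar with 100 μg/mL carbenicillin, 50 μM IPTG and 0.2% rhamnose, with or without 25 μg/mL kanamycin, incubated overnight at 37°C or 30°C. The E. coli BL21(DE3) library had all eight P1ex-region intron nucleotides randomised, the intron placed in the knt kanamycin-resistance gene on pET-22b(+). DiMSum fitness is the error-weighted combination of replicate fold changes, kanamycin against none, normalised to wild type.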

Sequence: AUGAAGCAAUAUUACGACCG
- self-splicing fitness (ln) (30 °C): -0.584 ± 0.24
- self-splicing fitness (ln) (37 °C): -0.447 ± 0.27

Sequence: AUGAAGCAAUAUUACGACUA
- self-splicing fitness (ln) (30 °C): 0.0947 ± 0.059
- self-splicing fitness (ln) (37 °C): -0.133 ± 0.059

Sequence: AUGAAGCAAUAUUACGAGAC
- self-splicing fitness (ln) (30 °C): -2.73 ± 0.43
- self-splicing fitness (ln) (37 °C): -1.28 ± 0.47

Sequence: AUGAAGCAAUAUUACGAGAG
- self-splicing fitness (ln) (30 °C): -2.78 ± 0.15
- self-splicing fitness (ln) (37 °C): -0.788 ± 0.1

Sequence: AUGAAGCAAUAUUACGAGAU
- self-splicing fitness (ln) (30 °C): -2.93 ± 0.21
- self-splicing fitness (ln) (37 °C): -1.28 ± 0.21

Sequence: AUGAAGCAAUAUUACGAGGG
- self-splicing fitness (ln) (30 °C): -2.64 ± 0.21
- self-splicing fitness (ln) (37 °C): -2.83 ± 0.28

Sequence: AUGAAGCAAUAUUACGAGGU
- self-splicing fitness (ln) (30 °C): -3.32 ± 0.15
- self-splicing fitness (ln) (37 °C): -2.07 ± 0.18

Sequence: AUGAAGCAAUAUUACGAUAG
- self-splicing fitness (ln) (30 °C): -4.07 ± 0.39
- self-splicing fitness (ln) (37 °C): -2.33 ± 0.32

Sequence: AUGAAGCAAUAUUACGAUCU
- self-splicing fitness (ln) (30 °C): -0.0854 ± 0.072
- self-splicing fitness (ln) (37 °C): 0.317 ± 0.088

Sequence: AUGAAGCAAUAUUACGAUUU
- self-splicing fitness (ln) (30 °C): 0.114 ± 0.062
- self-splicing fitness (ln) (37 °C): 0.345 ± 0.071

Sequence: AUGAAGCAAUAUUACGCACA
- self-splicing fitness (ln) (30 °C): 0.703 ± 0.097
- self-splicing fitness (ln) (37 °C): 0.63 ± 0.14

Sequence: AUGAAGCAAUAUUACGCAGU
- self-splicing fitness (ln) (30 °C): -1.36 ± 0.11
- self-splicing fitness (ln) (37 °C): -0.415 ± 0.11

Sequence: AUGAAGCAAUAUUACGCCGU
- self-splicing fitness (ln) (30 °C): -0.474 ± 0.12
- self-splicing fitness (ln) (37 °C): -0.0165 ± 0.14

Sequence: AUGAAGCAAUAUUACGCGCG
- self-splicing fitness (ln) (30 °C): -0.094 ± 0.087
- self-splicing fitness (ln) (37 °C): -0.808 ± 0.098

Sequence: AUGAAGCAAUAUUACGCGGG
- self-splicing fitness (ln) (30 °C): -1.39 ± 0.11
- self-splicing fitness (ln) (37 °C): -0.785 ± 0.14

Sequence: AUGAAGCAAUAUUACGGCAG
- self-splicing fitness (ln) (30 °C): 0.378 ± 0.086
- self-splicing fitness (ln) (37 °C): -0.115 ± 0.1

Sequence: AUGAAGCAAUAUUACGGUAG
- self-splicing fitness (ln) (30 °C): -2.93 ± 0.17
- self-splicing fitness (ln) (37 °C): -2.03 ± 0.23

Sequence: AUGAAGCAAUAUUACGGUAU
- self-splicing fitness (ln) (30 °C): -0.945 ± 0.066
- self-splicing fitness (ln) (37 °C): -0.484 ± 0.086

Sequence: AUGAAGCAAUAUUACGUAAA
- self-splicing fitness (ln) (30 °C): -1.99 ± 0.09
- self-splicing fitness (ln) (37 °C): -1.27 ± 0.11

Sequence: AUGAAGCAAUAUUACGUAGG
- self-splicing fitness (ln) (30 °C): -2.79 ± 0.16
- self-splicing fitness (ln) (37 °C): -1.25 ± 0.18

Sequence: AUGAAGCAAUAUUACGUAUC
- self-splicing fitness (ln) (30 °C): -4.1 ± 0.24
- self-splicing fitness (ln) (37 °C): -1.99 ± 0.18

Sequence: AUGAAGCAAUAUUACGUCAG
- self-splicing fitness (ln) (30 °C): -0.198 ± 0.057
- self-splicing fitness (ln) (37 °C): 0.134 ± 0.073

Sequence: AUGAAGCAAUAUUACGUCUG
- self-splicing fitness (ln) (30 °C): -0.0483 ± 0.061
- self-splicing fitness (ln) (37 °C): 0.316 ± 0.079

Sequence: AUGAAGCAAUAUUACGUGGU
- self-splicing fitness (ln) (30 °C): -1.71 ± 0.07
- self-splicing fitness (ln) (37 °C): -1.31 ± 0.087

Sequence: AUGAAGCAAUAUUACGUUUC
- self-splicing fitness (ln) (30 °C): -4.39 ± 0.2
- self-splicing fitness (ln) (37 °C): -3.03 ± 0.15

Sequence: AUGCAGCAAUAUUACGAACA
- self-splicing fitness (ln) (30 °C): -0.00786 ± 0.13
- self-splicing fitness (ln) (37 °C): 0.392 ± 0.16

Sequence: AUGCAGCAAUAUUACGACAA
- self-splicing fitness (ln) (30 °C): -0.348 ± 0.075
- self-splicing fitness (ln) (37 °C): -0.366 ± 0.093

Sequence: AUGCAGCAAUAUUACGAGCG
- self-splicing fitness (ln) (30 °C): -0.487 ± 0.063
- self-splicing fitness (ln) (37 °C): -0.0426 ± 0.084

Sequence: AUGCAGCAAUAUUACGAGUU
- self-splicing fitness (ln) (30 °C): -3.2 ± 0.11
- self-splicing fitness (ln) (37 °C): -1.39 ± 0.1

Sequence: AUGCAGCAAUAUUACGAUAG
- self-splicing fitness (ln) (30 °C): -2.99 ± 0.19
- self-splicing fitness (ln) (37 °C): -2.57 ± 0.22

Sequence: AUGCAGCAAUAUUACGCAAC
- self-splicing fitness (ln) (30 °C): -2.42 ± 0.18
- self-splicing fitness (ln) (37 °C): -2.58 ± 0.2

Sequence: AUGCAGCAAUAUUACGCCGA
- self-splicing fitness (ln) (30 °C): -1.55 ± 0.14
- self-splicing fitness (ln) (37 °C): -0.543 ± 0.17

Sequence: AUGCAGCAAUAUUACGCGCG
- self-splicing fitness (ln) (30 °C): -0.941 ± 0.1
- self-splicing fitness (ln) (37 °C): -0.349 ± 0.1

Sequence: AUGCAGCAAUAUUACGCGGU
- self-splicing fitness (ln) (30 °C): -4.01 ± 0.21
- self-splicing fitness (ln) (37 °C): -1.85 ± 0.16

Sequence: AUGCAGCAAUAUUACGCUAC
- self-splicing fitness (ln) (30 °C): -3.31 ± 0.21
- self-splicing fitness (ln) (37 °C): -2.38 ± 0.23

Sequence: AUGCAGCAAUAUUACGGACC
- self-splicing fitness (ln) (30 °C): -1.52 ± 0.17
- self-splicing fitness (ln) (37 °C): -0.744 ± 0.17

Sequence: AUGCAGCAAUAUUACGGGAA
- self-splicing fitness (ln) (30 °C): -2.83 ± 0.16
- self-splicing fitness (ln) (37 °C): -1.92 ± 0.14
